Experiments:
[1] = previously identified variant; cited from earlier work
[2] = reported values; cited from earlier work
[3] = Steady-state kinetics of TS-PTDH variants with NADP^+; type: biochemical; conditions: 100 mM MOPS, pH 7.25, 10 mM sodium phosphite, varied cofactor concentrations; n = 3
Method: (§1) Purification and Characterization of TS-PTDH Variants. The E. coli BL21(DE3) strains harboring pQElac plasmids encoding the TS-PTDH or TS-PTDH variants were grown in 2×YT media with kanamycin and ampicillin at 37° C. The IPTG-inducible expression, Ni-affinity purification, and protein concentration determination was conducted as described above.
(§2) The steady-state kinetic parameters toward the coenzymes were measured by spiking purified protein into a 100 μL reaction mixture containing 100 mM MOPS, pH 7.25, 10 mM sodium Pt, and varied cofactor concentrations from 0.02 mM to 5 mM at 25° C. The kinetic parameters were measured by monitoring the […] of reduced coenzyme at 340 nm. Data were fitted to the Michaelis-Menten equation to generate estimates of KM and kcat values.

[4] = Steady-state kinetics of TS-PTDH variants with NAD^+; type: biochemical; conditions: 100 mM MOPS, pH 7.25, 10 mM sodium phosphite, varied cofactor concentrations; n = 3
Method: as §1, §2

[5] = Specific activity of TS-PTDH variants with NMN^+; type: biochemical; conditions: 100 mM MOPS pH 7.25, 10 mM sodium Pt, 4 mM cofactor, 25° C.
Method: as §1
The specific activities of TS-PTDH and variants were measured with the following methods. Briefly, the reaction mixture contained 100 mM MOPS buffer, pH 7.25, 10 mM sodium Pt, and 4 mM cofactor (NAD^+, NADP^+, or NMN^+). The formation of reduced coenzyme was measured by light absorption at 340 nm in a 96-well plate at 25° C. Absorption was correlated to a molar basis using the extinction coefficient (ε) of 6.22 mM^−1 cm^−1 for each cofactor.

E. coli SHuffle strain = assay: Recapitulation of growth restoration with TS-PTDH variants in SHuffle strain; type: cell-based, Escherichia coli; conditions: spotted onto agar selection plates
Method: Selection of TS-PTDH Library. A total of 50 μL pre-made SHuffle/pLZ311 or SHuffle/pLZ312 electro-competent cells were transformed with 2 μL TS-PTDH A155N-E175-A176-L208 NNK library DNA (pLZ316) via electroporation as described above. After rescue in SOC media for 1 h, cultures were combined in 10 mL 2×YT with 10 g/L glucose, 0.5% arabinose, kanamycin and ampicillin. 0.2, or 1 μL of culture was immediately taken from the culture and plated on an 2×YT agar plates with kanamycin and ampicillin. The plate was incubated at 37° C. overnight, and the number of colonies formed was counted to estimate the library size. The liquid cultures were incubated at 37° C. with shaking for 10 h. Cells (1 mL) were washed 3 times and re-suspended in M9 Buffer. Targeted serial dilutions of cells were prepared in M9 buffer and 5 μL aliquots were dispensed in series on an agar plate of M9 selection media containing 0.5 mM diamide, 5 or 1 g/L yeast extract, 10 g/L glucose, 0.5% arabinose, 0.5 mM IPTG, 10 g/L sodium phosphite, kanamycin, ampicillin, and 5 mM NMN^+. Selection plates were incubated at 37° C., and photographs were taken to document growth progress. The independent transformants sampled was calculated as 2.4×10^6 and 2.5×10^6 colonies when plated on 5 and 1 g/L yeast extract, respectively. TS-PTDH and the template of the library, TS-PTDH A155N, were cultured in the same conditions as controls. The colonies were numbered by the order of appearance. The selected cells were re-streaked on fresh agar plate with identical media and incubated until single colonies formed on the plate. Variants that cannot forma single colony may be false positives. After extracting the plasmids from each re-streaked colony, the chosen TS-PTDH variants were amplified and moved into the pQElac vector containing a N-terminal 6×His tag for protein purification and characterization. […] 2 μL of a serial dilution of cells were deposited onto a growth selection plate and grown at 37° C.

[6] = BNA(H)-mediated PTDH biotransformation with TsOYE; type: biochemical; conditions: 0, 5, 10, or 20 mM BNA^+
Method: BNA(H)-Mediated PTDH Biotransformation. Reactions with BNA^+, see FIG. 10D, contained 100 mM MOPS-NaOH at pH 7.6, 10 mM KIP, 100 mM sodium phosphite, and 2% v/v DMSO. BNA^+Cl^−, prepared by refluxing equimolar amounts of nicotinamide and benzyl chloride in acetonitrile overnight, followed by precipitation with diethyl ether on ice was supplied to the reactions at final concentrations of 0, 5, 10, or 20 mM. Reactions were initiated by spiking TsOYE and the appropriate TS-PTDH variant to a final concentration of 10 μM, each. Reaction mixtures were incubated at 30° C. on a Thermomixer C (Eppendorf) with shaking at 900 rpm for 24 h, extracted with 500 μL ethyl acetate containing 5 mM n-dodecane, and analyzed by GC-FID. The cycling system with no BNA was used to determine the background activity of the cycling systems. This value was subtracted from the final levodione concentrations in the 5-, 10-, and 20-mM samples to determine the BNA(H)^− specific levodione production. Concentrations of levodione product were determined using a calibration line (0-10 mM, 6 levels, using n-dodecane as internal standard). The y-intercept of the calibration line was forced through 0.
For BNA(H)-mediated reactions, gas chromatography analyses were performed on a GC-2010 (Shimadzu, Japan) equipped with an AOC-20i auto injector and a flame ionization detector (FID), using a CP-Sil 5 column (25 m×0.25 mm×[…]). 1 μL of sample was injected with a split ratio of 100:1 and injector at 340° C. The FID was maintained at 360° C. Nitrogen was used as the carrier gas, with a linear velocity of 30 cm/s. The oven was held at 135° C. for 1 min, ramped at 15° C./min to 215° C., then 30° C./min to 345° C., and held at 345° C. for 1 min.
Expression and Purification of Proteins for BNA(H)-Mediated Biotransformation Reactions. E. coli BL21(DE3) strains were transformed with the plasmids containing the TS-PTDH variants and grown on LB-agar plates containing ampicillin at 37° C. overnight. An overnight culture, 15 mL LB supplemented with ampicillin, was inoculated with a single colony, and grown at 37° C., 170 rpm overnight. 2 L baffled shake-flasks with 250 mL of 2×YT media containing 200 μg/mL ampicillin, were inoculated with the overnight culture, grown at 37° C., 170 rpm until OD600 of ˜1.0, induced with IPTG (0.5 mM), and grown at 30° C. and 170 rpm for 24 h. Cells were harvested by centrifugation at 18,000×g, 4° C., 10 min and stored at −20° C. until purification.
The pellet was resuspended in four volumes loading buffer (50 mM sodium phosphate, 300 mM sodium chloride, 10 mM imidazole, pH 7.7), and lysed on ice by sonication (Branson sonifier 250; 15 min total, 40% duty cycle, output control 3.5, 2 mm tip). The lysate was clarified (21,000×g, 4° C., 30 min followed by 0.2 μm filtration), and loaded (1 mL/min) onto a Nickel-HisTrap FF crude (1 mL) column, washed with loading buffer (12 column volumes, CV), followed by a step with 10% elution buffer (loading buffer containing 250 mM imidazole; 12 CV). The protein was then eluted with 100% elution buffer and collected in fractions of 0.5 mL. Fractions containing protein were combined and dialyzed against ice-cold dialysis buffer (50 mM sodium phosphate, pH 7.7, 800 mL); the buffer was renewed after the first 2 h of dialysis. Following the dialysis, the protein was mixed with glycerol (20% v/v final concentration). Enzyme concentrations were estimated by the absorbance at 280 nm (non-denatured protein), using predicted extinction coefficients (wild type and LY-13: 26470, LY-7: […]; web.expasy.org/protparam/). The protein was aliquoted, flash frozen in liquid nitrogen, and stored at −80° C. until use. […]

[7] = Steady-state kinetics of TS-PTDH variants with NMN^+; type: biochemical; conditions: enzyme could not be saturated; 100 mM MOPS, pH 7.25, 10 mM sodium phosphite
Method: as §1, §2

B1: R198M-R204L: previously identified Ec Gor variant with R198M-R204L double mutations (protein, UniProt P06715 1-450, looked up, variant R198M R204L)
Glutathione reductase: MTKHYDYIAIGGGSGGIASINRAAMYGQKCALIEAKELGGTCVNVGCVPKKVMWHAAQIREAIHMYGPDYGFDTTINKFNWETLIASRTAYIDRIHTSYENVLGKNNVDVIKGFARFVDAKTLEVNGETITADHILIATGGRPSHPDIPGVEYGIDSDGFFALPALPERVAVVGAGYIAVELAGVINGLGAKTHLFVMKHAPLLSFDPMISETLVEVMNAEGPQLHTNAIPKAVVKNTDGSLTLELEDGRSETVDCLIWAIGREPANDNINLEAAGVKTNEKGYIVVDKYQNTNIEGIYAVGDNTGAVELTPVAVAAGRRLSERLFNNKPDEHLDYSNIPTVVFSHPPIGTVGLTEPQAREQYGDDQVKVYKSSFTAMYTAVTTHRQPCRMKLVCVGSEEKIVGIHGIGFGMDEMLQGFAVALKMGATKKDFDNTVAIHPTAAEEFVTMR
NADPH-dependent activity [1]: almost completely abolished

B2: wild-type PTDH: wild-type phosphite dehydrogenase enzyme, literature TTN with NAD^+ (protein, UniProt O69054 1-336, looked up)
Phosphonate dehydrogenase: MLPKLVITHRVHDEILQLLAPHCELMTNQTDSTLTREEILRRCRDAQAMMAFMPDRVDADFLQACPELRVVGCALKGFDNFDVDACTARGVWLTFVPDLLTVPTAELAIGLAVGLGRHLRAADAFVRSGEFQGWQPQFYGTGLDNATVGILGMGAIGLAMADRLQGWGATLQYHEAKALDTQTEQRLGLRQVACSELFASSDFILLALPLNADTQHLVNAELLALVRPGALLVNPCRGSVVDEAAVLAALERGQLGGYAADVFEMEDWARADRPRLIDPALLAHPNTLFTPHIGSAVRAVRLEIERCAAQNIIQVLAGARPINAANRLPKAEPAAC
TTN with NAD^+ [2]: 80,000

B3: TS-PTDH: 16× thermostable variant of Pseudomonas stutzeri phosphite dehydrogenase (SEQ ID NO:2), engineering template (protein, listed as Pseudomonas stutzeri)
chain: MLPKLVITHRVHEEILQLLAPHCELITNQTDSTLTREEILRRCRDAQAMMAFMPDRVDADFLQACPELRVIGCALKGFDNFDVDACTARGVWLTFVPDLLTVPTAELAIGLAVGLGRHLRAADAFVRSGKFRGWQPRFYGTGLDNATVGFLGMGAIGLAMADRLQGWGATLQYHEAKALDTQTEQRLGLRQVACSELFASSDFILLALPLNADTLHLVNAELLALVRPGALLVNPCRGSVVDEAAVLAALERGQLGGYAADVFEMEDWARADRPQQIDPALLAHPNTLFTPHIGSAVRAVRLEIERCAAQNILQALAGERPINAVNRLPKANPAAD
Km [3]: 740 ± 40 µM | NADP^+ kcat [3]: 0.57 ± 0.01 s⁻¹ | Km [4]: 60 ± 10 µM | NAD^+ kcat [4]: 1.03 ± 0.01 s⁻¹ | NMN^+-dependent specific activity [5]: 53.0 ± 3.4 nmol/min/mg | growth restoration, co-expression with NMNH-specific Gor Ortho (E. coli SHuffle strain): grew poorly | growth, co-expression with wild type Ec Gor (E. coli SHuffle strain): supported cell growth | response of biotransformation efficiency to BNA^+ concentration [6]: cofactor dose-dependent response | Km [7]: > 5000 µM
